Laboratory results reported in US20250011363A1, “OPTIMIZED SHORTENED PEPTIDE THAT BINDS TO ACETYLCHOLINE RECEPTOR, AND USE THEREOF” (SKINMED CO., LTD., priority 2021, published 2025).

Target: acetylcholine receptor
Assay: SPR, receptor immobilized, peptide 10 uM

Question: With RITNKR [6mer-2-824] as the binder, how does the Binding affinity (RU) read?
Answer: 26 RU

Question: For KRQRRK [6mer-2-164], which Binding affinity is on record?
Answer: 135 RU

Question: For KVYLKR [6mer-2-190], which Binding affinity is on record?
Answer: 148 RU

Question: For KHAKKK [6mer-2-810], which Binding affinity (RU) is on record?
Answer: 18 RU

Question: Which Binding affinity does the source give for KVIRKK [6mer-2-172] here?
Answer: 128 RU

Question: For RWIYRR [6mer-2-176], which Binding affinity is on record?
Answer: 144 RU

Question: RGQYKR [6mer-2-199] was tested. Which Binding affinity did it give?
Answer: 137 RU

Question: Which Binding affinity (RU) does the source give for KIWNRK [6mer-2-807] here?
Answer: 28 RU

Question: How did the Binding affinity (RU) turn out when KCSAKK [6mer-2-799] was run?
Answer: 13 RU

Question: With KWRRKK [6mer-2-161] as the binder, how does the Binding affinity read?
Answer: 154 RU

Question: With REDWRK [6mer-2-823] as the binder, how does the Binding affinity (RU) read?
Answer: 25 RU

Question: How did the Binding affinity (RU) turn out when RKMGKR [6mer-2-816] was run?
Answer: 15 RU

Question: With RNTPRK [6mer-2-826] as the binder, how does the Binding affinity (RU) read?
Answer: 11 RU

Question: Which Binding affinity (RU) does the source give for RPTMKR [6mer-2-821] here?
Answer: 33 RU

Question: For RNKERK [6mer-2-803], which Binding affinity (RU) is on record?
Answer: 18 RU

Question: For RQQCKK [6mer-2-173], which Binding affinity is on record?
Answer: 127 RU

Question: Which Binding affinity (RU) does the source give for RYMERK [6mer-2-814] here?
Answer: 28 RU

Question: With RKTWRR [6mer-2-833] as the binder, how does the Binding affinity (RU) read?
Answer: 14 RU

Question: How did the Binding affinity turn out when KSQRKK [6mer-2-196] was run?
Answer: 121 RU

Question: Which Binding affinity does the source give for KLFYKK [6mer-2-182] here?
Answer: 139 RU

Question: KYHNRR [6mer-2-832] was tested. Which Binding affinity (RU) did it give?
Answer: 32 RU

Question: How did the Binding affinity (RU) turn out when RMTWRK [6mer-2-831] was run?
Answer: 29 RU

Question: With RLRLKR [6mer-2-180] as the binder, how does the Binding affinity read?
Answer: 142 RU

Question: How did the Binding affinity turn out when KLRLRK [6mer-2-194] was run?
Answer: 154 RU

Question: How did the Binding affinity turn out when KLFQKR [6mer-2-167] was run?
Answer: 145 RU

Question: How did the Binding affinity turn out when RSVTKK [6mer-2-177] was run?
Answer: 136 RU

Question: For KQICRK [6mer-2-186], which Binding affinity is on record?
Answer: 127 RU

Question: How did the Binding affinity turn out when KWLLRR [6mer-2-178] was run?
Answer: 133 RU

Question: How did the Binding affinity turn out when RQYQKK [6mer-2-170] was run?
Answer: 128 RU

Question: How did the Binding affinity (RU) turn out when RDTMKK [6mer-2-805] was run?
Answer: 12 RU

Question: KAMKRK [6mer-2-811] was tested. Which Binding affinity (RU) did it give?
Answer: 16 RU

Question: With KTPERK [6mer-2-818] as the binder, how does the Binding affinity (RU) read?
Answer: 13 RU

Question: For RWFSKK [6mer-2-192], which Binding affinity is on record?
Answer: 133 RU

Question: With RNCGKR [6mer-2-804] as the binder, how does the Binding affinity (RU) read?
Answer: 21 RU

Question: For RWQQKK [6mer-2-181], which Binding affinity is on record?
Answer: 139 RU

Question: Which Binding affinity does the source give for KWFYRR [6mer-2-163] here?
Answer: 149 RU

Question: With RGYTKR [6mer-2-188] as the binder, how does the Binding affinity read?
Answer: 142 RU

Question: Which Binding affinity (RU) does the source give for RKKFKK [6mer-2-808] here?
Answer: 21 RU

Question: KRQSRR [6mer-2-169] was tested. Which Binding affinity did it give?
Answer: 123 RU

Question: With KKMDRR [6mer-2-813] as the binder, how does the Binding affinity (RU) read?
Answer: 29 RU

Question: With RRVYRR [6mer-2-179] as the binder, how does the Binding affinity read?
Answer: 121 RU

Question: How did the Binding affinity (RU) turn out when RMKKKR [6mer-2-828] was run?
Answer: 32 RU

Question: How did the Binding affinity turn out when KSRQKR [6mer-2-195] was run?
Answer: 154 RU

Question: With RWLRKR [6mer-2-166] as the binder, how does the Binding affinity read?
Answer: 125 RU

Question: For RMKFKR [6mer-2-830], which Binding affinity (RU) is on record?
Answer: 21 RU

Question: How did the Binding affinity turn out when RQQTRR [6mer-2-171] was run?
Answer: 139 RU

Question: For RCTAKK [6mer-2-822], which Binding affinity (RU) is on record?
Answer: 13 RU

Question: Which Binding affinity does the source give for KWFTRR [6mer-2-165] here?
Answer: 139 RU

Question: For KETKRR [6mer-2-802], which Binding affinity (RU) is on record?
Answer: 24 RU

Question: Which Binding affinity does the source give for KLLRKR [6mer-2-174] here?
Answer: 142 RU

Question: How did the Binding affinity turn out when KWYYRK [6mer-2-198] was run?
Answer: 139 RU

Question: With KRRRRK [6mer-2-187] as the binder, how does the Binding affinity read?
Answer: 145 RU

Question: Which Binding affinity (RU) does the source give for RPNIRK [6mer-2-801] here?
Answer: 24 RU

Question: Which Binding affinity does the source give for KVISKR [6mer-2-162] here?
Answer: 136 RU

Question: KYAEKK [6mer-2-827] was tested. Which Binding affinity (RU) did it give?
Answer: 13 RU

Question: RWQCKK [6mer-2-189] was tested. Which Binding affinity did it give?
Answer: 121 RU

Question: With KICGRK [6mer-2-815] as the binder, how does the Binding affinity (RU) read?
Answer: 30 RU

Question: How did the Binding affinity (RU) turn out when KHCVRK [6mer-2-806] was run?
Answer: 30 RU

Question: For KCNDKK [6mer-2-817], which Binding affinity (RU) is on record?
Answer: 22 RU

Question: RQLLKR [6mer-2-191] was tested. Which Binding affinity did it give?
Answer: 154 RU

Question: How did the Binding affinity (RU) turn out when RTAWKK [6mer-2-800] was run?
Answer: 11 RU

Question: For RGYQKR [6mer-2-185], which Binding affinity is on record?
Answer: 137 RU

Question: With RGQYRR [6mer-2-197] as the binder, how does the Binding affinity read?
Answer: 126 RU

Question: For KVYLRK [6mer-2-175], which Binding affinity is on record?
Answer: 137 RU

Question: For RHCGKR [6mer-2-835], which Binding affinity (RU) is on record?
Answer: 20 RU

Question: How did the Binding affinity (RU) turn out when KFSVRR [6mer-2-819] was run?
Answer: 23 RU

Question: Which Binding affinity (RU) does the source give for KIHARK [6mer-2-825] here?
Answer: 11 RU

Question: For KPPEKR [6mer-2-812], which Binding affinity (RU) is on record?
Answer: 33 RU

Question: With KWVSRR [6mer-2-184] as the binder, how does the Binding affinity read?
Answer: 136 RU

Question: For REPWRR [6mer-2-809], which Binding affinity (RU) is on record?
Answer: 18 RU

Question: KLFLRR [6mer-2-201] was tested. Which Binding affinity did it give?
Answer: 148 RU

Question: Which Binding affinity (RU) does the source give for KKKIRR [6mer-2-829] here?
Answer: 22 RU

Question: RLQLRR [6mer-2-183] was tested. Which Binding affinity did it give?
Answer: 154 RU

Question: Which Binding affinity does the source give for RVRRKK [6mer-2-160] here?
Answer: 121 RU

Question: For RFWWKR [6mer-2-834], which Binding affinity (RU) is on record?
Answer: 28 RU

Question: For KWISKR [6mer-2-193], which Binding affinity is on record?
Answer: 127 RU

Question: Which Binding affinity (RU) does the source give for RPNNKK [6mer-2-820] here?
Answer: 24 RU

Question: Which Binding affinity does the source give for RGVQRK [6mer-2-200] here?
Answer: 121 RU

Question: How did the Binding affinity turn out when RVFLKR [6mer-2-168] was run?
Answer: 135 RU
